# Measurements as given in IntAct's records for PubMed 25036637.
# B1: BAG family molecular chaperone regulator 4 (Homo sapiens), O95429 (parent)
# chain: MSALRRSGYGPSDGPSYGRYYGPGGGDVPVHPPPPLYPLRPEPPQPPISWRVRGGGPAETTWLGEGGGGDGYYPSGGAWPEPGRAGGSHQEQPPYPSYNSNYWNSTARSRAPYPSTYPVRPELQGQSLNSYTNGAYGPTYPPGPGANTASYSGAYYAPGYTQTSYSTEVPSTYRSSGNSPTPVSRWIYPQQDCQTEAPPLRGQVPGYPPSQNPGMTLPHYPYGDGNRSVPQSGPTVRPQEDAWASPGAYGMGGRYPWPSSAPSAPPGNLYMTESTSPWPSSGSPQSPPSPPVQQPKDSSYPYSQSDQSMNRHNFPCSVHQYESSGTVNNDDSDLLDSQVQYSAEPQLYGNATSDHPNNQDQSSSLPEECVPSDESTPPSIKKIIHVLEKVQYLEQEVEEFVGKKTDKAYWLLEEMLTKELLELDSVETGGQDSVRQARKEAVCKIQAILEKLEKKGL
# partner: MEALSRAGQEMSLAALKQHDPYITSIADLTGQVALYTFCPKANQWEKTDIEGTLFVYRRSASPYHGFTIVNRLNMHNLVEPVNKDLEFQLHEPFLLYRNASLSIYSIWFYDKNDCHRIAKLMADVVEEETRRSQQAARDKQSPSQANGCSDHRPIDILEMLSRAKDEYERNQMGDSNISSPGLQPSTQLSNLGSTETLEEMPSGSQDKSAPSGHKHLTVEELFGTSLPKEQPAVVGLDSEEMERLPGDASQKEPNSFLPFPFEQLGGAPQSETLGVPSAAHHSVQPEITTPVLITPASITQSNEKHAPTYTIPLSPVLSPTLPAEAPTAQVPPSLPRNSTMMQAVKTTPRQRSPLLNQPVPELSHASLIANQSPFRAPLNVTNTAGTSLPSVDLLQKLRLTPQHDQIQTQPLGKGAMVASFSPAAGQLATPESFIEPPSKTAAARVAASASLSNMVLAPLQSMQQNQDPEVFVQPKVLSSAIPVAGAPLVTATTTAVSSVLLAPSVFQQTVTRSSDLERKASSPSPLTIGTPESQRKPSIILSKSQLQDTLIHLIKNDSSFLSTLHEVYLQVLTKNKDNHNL
# Variants of: B1
# Conditions: with dcp1a_human DCP1A
row,effect of a mutation on the interaction,Variant
1,disrupting interaction,D424A
